In paper PMC3807668, “Structure of the CRISPR Interference Complex CSM Reveals Key Similarities with Cascade” (Molecular Cell, 2013):
“And” between values parts separate entries of the source, which are not always exact repeats. Identical values can stand only once.

B1: Sso1424 (natural protein, UniProt Q97YA8 16-139, looked up)
chain: SSQDLLDIATRIAISAIKPKPKSNKPEPYVDSSTINSLLSFLQSRRNVNELLLYIMRQAGRDEIDEETGKLLLASLKDRELKDAVNLLGYVKWVYDTLTGLKVNYNNVKGVKTFKELVNILSKV
modifications: acetylated N-terminal Ser-16; seven methylated lysines (positions not given)
notes: Sso1424, small subunit (probably Csm2) of the CSM complex of S. solfataricus; three copies in the CSM complex; also called small subunit; Csm2; source: endogenous, S. solfataricus PH1-16; co-purified with the tagged subunit (HisTrap, monoQ, gel filtration)
B2: Sso1427 (natural protein, UniProt Q97YA5 1-275, looked up)
chain: MQRSPIRRSNYTPRNEKGLEGVIELQLNVVSDYLHVGSGKYDVEVMRSVSDVKRLVEDYLSGGNKRIPNNVDQYFSMVAFLMVRNKDNVVIPGSTIKGMVRSRLELSVPGSCYIVTGHSTSSSAVYKRIFNPDPNRGSDRFDVNKFPQVCPVCDLLGNMGLASRVSLSDFVMTSGKVDYVNVKGRDYEVVTKGSIFAGKVLYKSLKPVEIGMLLYGFGFVKDCNGSKVMLLGRFKFSDKRFGRVKFSLKTPIADCNKLVSDFVKQFNPRYINEEW
modifications: methylation (residues not given)
notes: Sso1427, RAMP subunit of the CSM complex of S. solfataricus; its mass lies within 70 Da of that of Sso1426; also called RAMP subunit; Csm3 paralog; source: endogenous, S. solfataricus PH1-16; co-purified with the tagged subunit (HisTrap, monoQ, gel filtration)
B3: Sso1426 (natural protein, UniProt Q97YA6 1-281, looked up)
chain: MVLMVNYTFIDKRVIKRTTMIEGDVETVSPLKIGGGKDNFDPSSLAKDSILKDVEGRPIIPGSSWKGIFRSTGERILRLRNIEVCSGIGKDYCLNNNRKERDFNSALKENVDQALEIFWDYTCLNCKVFGTMSVIGAVRFLDSLPISYSLNTRSMIAISRTEGAVARRALVTVEYVDVGSKFSFKMMGYNLPNYAIGYLITIMKNIHDGFTQVGGHKSRGFGFVKFGKVKFTDLGEKRIGDEDIQVKDVGDLVEGNGDEFFGRMKPFMEAFNNAKIPYPKK
modifications: methylation (residues not given)
notes: Sso1426, RAMP subunit assigned to the Csm3 (Cas7-like) family, CSM complex of S. solfataricus; four copies in the CSM complex; its mass lies within 70 Da of that of Sso1427; also called Csm3; Cas7 family RAMP subunit; source: endogenous, S. solfataricus PH1-16; co-purified with the tagged subunit (HisTrap, monoQ, gel filtration)
B4: Sso1430 (natural protein, UniProt Q97YA2 1-206, looked up)
chain: MIPIKVSMRNLSSLTIAGGSTISSIDIPLNPLGVPPSTIKGTMRTAVHNLLPNGYTSCGEVEPESIREAHKNGVCDVCKLFGYPDSLTGCFTIDVSKTDYRTSYITRVSIDDKTQRAKEGSLFTQQIILPNSDISFTVYYNCNDERLFKLLLYSILDLRYWRLGRNTMIDVKVNNVEEICKSVKCDEEINGILNQLSRYLWEAENK
modifications: methylation (residues not given)
notes: Sso1430, subunit of the CSM complex of S. solfataricus; also called RAMP subunit; Csm3 paralog; source: endogenous, S. solfataricus PH1-16; co-purified with the tagged subunit (HisTrap, monoQ, gel filtration)
B5: Sso1431 (untagged, in the complex purified by tagged Sso1428) (natural protein, UniProt Q97YA1 1-304, looked up)
chain: MILIKLKVKGYITTQMRRIRNYYFSITNYIPSTTLRGAILAEYYNQTGKIDENFYVSPAYPIKTAPAHYFSPAKERKGDEFIEVKRILEKKEKEFEANKPIEEIMKLEIDGKHPKPKIGSLITYEGETDKENKYREFSSKSIIQMHVAIDKTSISSYKGMLFAYEYKEFDEMWAIASDSEVIDTVKRIKIGRGKNRGNKVVDVEKVREVSLDQSKGLLYCLSPCIGSLFGKTFFKAKYIIGDKSIYSGWFTVDSFSGQKPVFETLREGSLVYVESFSNEKSLMPAGLNFMLRISDLSSILNKVS
modifications: methylation; phosphorylation (residues not given)
notes: Csm4 (Sso1431, Cas5 subfamily RAMP protein) of the CSM complex of S. solfataricus; also called Csm4; Cas5-like RAMP subunit; source: endogenous, S. solfataricus PH1-16; co-purified with tagged Sso1428 (HisTrap, monoQ, gel filtration)
B6: Sso1432 (natural protein, UniProt Q97YA0 1-252, looked up)
chain: MVIQVFRLNFRLRTGFRVGGGQEVGDNVIRQLRIGVEGVMIPASSWKGMFRRVSEIVLNSEDHFEEHSKKEVDTRTINALLKSDEKFRRIAISKVGKEVITQNGINVDKLDSESLSDLRRIYNEYNCPIERLYGSNYFAGGITISDSVIPNASIMERTHVTIERKSKKASEKHLFSEEIIDAEKIEVKVIVRNEFELWKNSLKLLREIGYFIGGSKSRGIGYIVLDEKESEYAVINNFSETPKFSELKRYLS
modifications: methylation (residues not given)
notes: Sso1432, RAMP subunit of the CSM complex of S. solfataricus; also called RAMP subunit; Csm3 paralog; source: endogenous, S. solfataricus PH1-16; co-purified with the tagged subunit (HisTrap, monoQ, gel filtration)
B7: Sso1425 (natural protein, UniProt Q97YA7 1-250, looked up)
chain: MKMSCMDLDVITTVVKIEGKLRNETLLRVGKGKTQDFAEATDNPIIKYRDRPLIPGSSLKGAFRSLVESYTKSLNDSKYYVCDLDDNSCVSCEEKKKDNGIVEGRYCIPCILFGFKDLASRVYILDAIAEKYSISQRTMVAINRVFGGQMPGHLYTLDYVDPGSEFSFMMMIYNLNLIEGEKDWKAKSVEALKFLLATLVREGIFVGARKSVGYGLIKLVDAKVSLYKAPDHLVSPVIVKKLEEVIGTNG
modifications: methylation; phosphorylation (residues not given)
notes: Sso1425, RAMP subunit of the CSM complex of S. solfataricus; also called RAMP subunit; Csm3 paralog; source: endogenous, S. solfataricus PH1-16; co-purified with the tagged subunit (HisTrap, monoQ, gel filtration)

Molecular target: B2
Experiment: cross-linking; purified CSM complex (1 ug/ul) with a 1:1 mixture of d4 and d0 BS3, 1 hr at room temperature; cross-linked peptides found by MS (MassMatrix) and validated by hand
Settings: both partners purified

Binder | binding result
B1 | binds

Molecular target: B5
Experiment: native MS; purified CSM complex disassembled in 200 mM ammonium acetate with 5%-20% acetic acid (pH 3.9, 3.5, 3.2); subcomplexes of 357 to 120 kDa assigned by tandem MS; interaction map deduced from the disassembly pattern with the help of the EM shape
Settings: both partners purified

Binder | binding result
B2 | binds

Molecular target: B4
Experiment: as above
Settings: both partners purified

Binder | binding result
B1 | binds

Molecular target: T1, Sso1428 with C-terminal tandem tag (Strep and 10x His) (S. solfataricus, UniProt Q97YA4 1-558, methylation (residues not given))
T1 chain: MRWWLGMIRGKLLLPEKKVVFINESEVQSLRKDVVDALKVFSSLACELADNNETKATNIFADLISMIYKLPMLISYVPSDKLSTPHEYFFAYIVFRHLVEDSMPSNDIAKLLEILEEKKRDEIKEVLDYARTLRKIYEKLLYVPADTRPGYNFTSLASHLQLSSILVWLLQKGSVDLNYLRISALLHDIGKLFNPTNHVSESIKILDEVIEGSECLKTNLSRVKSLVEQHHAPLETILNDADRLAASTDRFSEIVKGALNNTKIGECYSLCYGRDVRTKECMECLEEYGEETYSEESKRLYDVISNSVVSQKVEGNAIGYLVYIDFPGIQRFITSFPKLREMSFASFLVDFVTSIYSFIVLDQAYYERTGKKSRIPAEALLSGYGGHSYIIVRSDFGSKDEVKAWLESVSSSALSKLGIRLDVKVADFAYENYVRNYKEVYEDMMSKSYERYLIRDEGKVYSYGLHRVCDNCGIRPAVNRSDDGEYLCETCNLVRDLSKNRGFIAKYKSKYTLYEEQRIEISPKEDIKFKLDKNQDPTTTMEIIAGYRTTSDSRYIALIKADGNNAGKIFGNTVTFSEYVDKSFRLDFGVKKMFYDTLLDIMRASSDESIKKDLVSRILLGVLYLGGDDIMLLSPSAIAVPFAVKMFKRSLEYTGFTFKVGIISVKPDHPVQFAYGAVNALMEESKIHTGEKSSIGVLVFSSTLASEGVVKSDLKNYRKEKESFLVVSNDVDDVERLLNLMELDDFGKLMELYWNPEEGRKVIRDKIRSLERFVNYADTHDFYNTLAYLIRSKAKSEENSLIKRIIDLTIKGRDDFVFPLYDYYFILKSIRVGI
Experiment: native MS + other: quantitative proteomics with isotope-labelled peptides; exhaustive mass search on the intact mass 427,611 Da; copy numbers of Sso1424, Sso1425 and Sso1426 allowed to vary by one, the others fixed by Table 1; one hit within a mass error of 3%
Settings: both partners purified

Binder | stoichiometry N
B2 | 1 subunit:Sso1428
B3 | 4 subunit:Sso1428
B4 | 1 subunit:Sso1428
B5 | 1 subunit:Sso1428
B6 | 1 subunit:Sso1428
B1 | 3 subunit:Sso1428
B7 | 1 subunit:Sso1428

Molecular target: the molecule itself
Experiment: as above
Settings: not given

Binder | stoichiometry N [copies]
B3 | 4
B1 | 3

Molecular target: T1, Sso1428 with C-terminal tandem tag …
Experiment: quantitative proteomics with isotope-labelled dipeptides (LC-MS); purified CSM complex spiked with synthetic (15N,13C)-labelled dipeptides joining a peptide of each subunit to the reference peptide of Sso1428, trypsin digest, LTQ-Orbitrap; ratio of peak areas
Settings: both partners purified

Binder | stoichiometry N
B2 | 0.8 subunit:Sso1428 and 0.79 subunit:Sso1428 and 0.83 subunit:Sso1428 and 0.81 subunit:Sso1428
B3 | 4.85 subunit:Sso1428 and 4.81 subunit:Sso1428 and 4.73 subunit:Sso1428 and 4.8 subunit:Sso1428
B5 | 0.67 subunit:Sso1428 and 0.65 subunit:Sso1428 and 0.7 subunit:Sso1428
B6 | 0.92 subunit:Sso1428 and 0.91 subunit:Sso1428 and 0.96 subunit:Sso1428 and 0.93 subunit:Sso1428
B1 | 3.62 subunit:Sso1428 and 3.51 subunit:Sso1428 and 4.03 subunit:Sso1428 and 3.72 subunit:Sso1428
B7 | 1.45 subunit:Sso1428 and 1.35 subunit:Sso1428 and 1.56 subunit:Sso1428
